Assay results taken from article PMC5543128.

B1: A5 (ssDNA)
DNA: GCCTGTTGTGAGCCTCCTGTCGAAGTGCAGGTCTATACAGGACAGTCTTCTGATTTGAGCGTTTATTCTTGTCTCCC
B2: A4 (ssDNA)
DNA: GCCTGTTGTGAGCCTCCTGTCGAAAATGCTGTTGTTTGAGTATCAATCAGACCGTTGAGCGTTTATTCTTGTCTCCC
B3: D3 (ssDNA)
DNA: GCCTGTTGTGAGCCTCCTGTCGAAATCGGTCGTATAGGGTCGATTTGGTCGGCATTGAGCGTTTATTCTTGTCTCCC
B4: B4 (ssDNA)
DNA: GCCTGTTGTGAGCCTCCTGTCGAATACGCACATACTGTGTACCTTGAATTTATATTGAGCGTTTATTCTTGTCTCCC
B5: D7 (ssDNA)
DNA: GCCTGTTGTGAGCCTCCTGTCGAATGCAGCATGGGGGATGTGCTCTTCCGCGTGTTGAGCGTTTATTCTTGTCTCCC
B6: 5'-biotin B4 (ssDNA)
DNA: GCCTGTTGTGAGCCTCCTGTCGAATACGCACATACTGTGTACCTTGAATTTATATTGAGCGTTTATTCTTGTCTCCC

Target: FAM-αC-conotoxin PrXA (Conus parius, UniProt P0C8S5 52-83)
Assay: fluorescence anisotropy
Details: tags: 5,6-carboxyfluorescein (FAM)

FAM-αC-conotoxin PrXA, sequence (P0C8S5 52-83): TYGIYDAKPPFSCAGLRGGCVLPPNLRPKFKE

In order of falling Kd:
1. B2  0.246 ± 0.0666 µM
2. B5  0.238 ± 0.0306 µM
3. B1  0.184 ± 0.0697 µM
4. B3  0.122 ± 0.0253 µM
5. B4  0.12 ± 0.0213 µM

Target: αC-conotoxin PrXA (Conus parius, UniProt P0C8S5 52-83)
Assay: SPR
Details: tags: none; label: 5' biotin

αC-conotoxin PrXA, sequence (P0C8S5 52-83): as above

Work on B6 yielded a Kd of 0.329 µM.
